No end group written: not given here.

For one test, the target named is N/OFQ peptide (NOP) receptor fused to Renilla luciferase (UniProt P41146).
N/OFQ peptide (NOP) receptor fused to Renilla luciferase, sequence (P41146 whole entry, the tested form may be a part): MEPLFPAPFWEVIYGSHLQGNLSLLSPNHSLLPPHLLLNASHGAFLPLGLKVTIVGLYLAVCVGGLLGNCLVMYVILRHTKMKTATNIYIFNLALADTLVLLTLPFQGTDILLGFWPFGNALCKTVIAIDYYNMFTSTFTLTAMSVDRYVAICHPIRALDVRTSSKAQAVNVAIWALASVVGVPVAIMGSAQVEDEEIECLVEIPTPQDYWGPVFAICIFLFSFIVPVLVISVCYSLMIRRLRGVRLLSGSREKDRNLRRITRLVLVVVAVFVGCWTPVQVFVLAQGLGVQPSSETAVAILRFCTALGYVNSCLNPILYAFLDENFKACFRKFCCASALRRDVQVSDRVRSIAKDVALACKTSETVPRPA
On to [AC3C^7]N/OFQ-NH2 (peptide), for which the pEC50 for promoting the NOP/G protein interaction (BRET, membranes with NOP-RLuc and Gβ1-RGFP) is 7.67 -log10 M; the pEC50 for promoting the NOP/β-arrestin 2 interaction (BRET, cells with NOP-RLuc and β-arrestin 2-RGFP) is 7.56 -log10 M.

On to [AC5C^7]N/OFQ-NH2 (peptide), for which the pEC50 for promoting the NOP/G protein interaction (BRET, membranes with NOP-RLuc and Gβ1-RGFP) is 8.1 -log10 M; the pEC50 for promoting the NOP/β-arrestin 2 interaction (BRET, cells with NOP-RLuc and β-arrestin 2-RGFP) is 8.1 -log10 M.

As for [AC5C^11]N/OFQ-NH2 (peptide), the pEC50 for promoting the NOP/G protein interaction (BRET, membranes with NOP-RLuc and Gβ1-RGFP) was 8.61 -log10 M; the pEC50 for promoting the NOP/β-arrestin 2 interaction (BRET, cells with NOP-RLuc and β-arrestin 2-RGFP) was 8.22 -log10 M.

Turning to [Aib^7]N/OFQ-NH2 (peptide), the pEC50 for promoting the NOP/G protein interaction (BRET, membranes with NOP-RLuc and Gβ1-RGFP) was 8.92 -log10 M; the pEC50 for promoting the NOP/β-arrestin 2 interaction (BRET, cells with NOP-RLuc and β-arrestin 2-RGFP) was 8.4 -log10 M.

For [Aib^11]N/OFQ-NH2 (peptide), the pEC50 for promoting the NOP/G protein interaction (BRET, membranes with NOP-RLuc and Gβ1-RGFP) was 8.35 -log10 M; the pEC50 for promoting the NOP/β-arrestin 2 interaction (BRET, cells with NOP-RLuc and β-arrestin 2-RGFP) was 8.21 -log10 M.

For a further test the target is unchanged. The source holds these as a separate data set.
As for FGGFVGARKSARK-NH2 [[Val^5]N/OFQ(1–13)-NH2], the pEC50 for promoting the NOP/G protein interaction (BRET, membranes with NOP-RLuc and Gβ1-RGFP) is 7.94 -log10 M; the pEC50 for promoting the NOP/β-arrestin 2 interaction (BRET, cells with NOP-RLuc and β-arrestin 2-RGFP) was 7.38 -log10 M.

The values above are taken from paper PMC8011926 (Journal of Medicinal Chemistry, 2020).
